# “Also recorded” adds a separate entry of the source.
# Legend:
# [1] = Storage stability of purified PodA30-162; type: physicochemical; conditions: 20 mM Tris, pH7.6, 4° C.; as long as tested
# Procedure: Protein extraction and purification. Frozen cell pellets were thawed at room temperature and suspended in 25 mL wash buffer (200 mM KCl, 20 mM imidazole, Tris, pH 7.6). Cell suspensions were homogenized in an Emulsiflex device (Avestin). Cell debris was removed by centrifugation (Avanti J-25 centrifuge, J-series JA-25.50 rotor, Beckman-Coulter) at 50,000×g and supernatant was applied to a nickel GE Healthcare HisTrap HP 5 mL nickel column on a GE Healthcare ÄKTAxpress FPLC. All protein purification steps were carried out at room temperature. The column with bound protein was washed with wash buffer until the UV (280 nm) trace stabilized below 20 mAU. Proteins were eluted across a gradient of 20-500 mM imidazole applied over 10 column volumes. PYO demethylase activity generally eluted around 300 mM imidazole. Eluted protein was concentrated to ˜3 mL (Amicon Ultra-15 centrifugal filters, Ultracel 3K MWCO) and treated overnight with 1% wt/wt TEV protease (35) while dialyzing (Spectra/Por Biotech Dialysis membrane, MWCO: 3.5-5 kD) into buffer containing 200 mM KCl and 20 mM Tris, pH7.6 at 4 C. […] Protein quantification was carried out by Bradford assay (36) (Quick Start 1× Bradford Dye Reagent, Bio-Rad) using pre-diluted Bovine Serum Albumin standards (Thermo Scientific) to establish a standard curve. […]
# [2] = system: P. aeruginosa PA14 biofilms; assay: Biofilm formation, surface coverage (chambered coverglass, DAPI); type: cell-based; conditions: for biofilm surface coverage: 5 hours
# Procedure: Biofilm experiments. For all experiments involving inactivated PodA, either the E154A mutant or PodA30-162 that was subjected to a 1 hour treatment at 98° C. was used. To test the ability of PodA30-162 to degrade PYO in the presence of DNA, genomic DNA (gDNA) from P. aeruginosa PA14 was used in modified versions of previously described assays (59). For experiments using DNA pellets, 0.5 mg of gDNA was pelleted in the presence of 300 mM sodium acetate, pH 5.2 and 70% ethanol. Pellets were washed with 70% ethanol and dried. 200 μL of 800 μM PYO was added to the gDNA pellet without mixing and left to sit at room temperature for 6 hours to allow for diffusion of PYO into the gDNA pellet. The pellet was washed once with 70% EtOH, and submerged in a solution containing 10 mM Tris, pH 7.0 and 40% isopropanol. The pellet remained blue, consistent with an association of PYO with DNA. PodA30-162 was added to the isopropanol solution to a final concentration of 2 μg mL^−1 and left to sit for 3 hours to allow for the reaction to proceed. Tubes were imaged before and after PodA30-162 treatment. For experiments using solubilized gDNA, a 400 μg mL^−1 solution of gDNA was mixed with PYO and allowed to equilibrate for 6 hours. The PYO gDNA mixture was amended with 1 μg mL^−1 PodA30-162 and loss of PYO was monitored on a BioTek Synergy 4 microplate reader (BioTek) plate reader at 690 nm. Standards were included to quantify PYO loss over time. To assess biofilm formation in the presence of PodA30-162, biofilms were grown in Nunc Lab-Tek chambered coverglass slides (8-well, 0.8 cm^2 area, supplier #155411) using a modified protocol (22). PA14 was inoculated into succinate minimal medium and grown overnight to stationary phase. Cells were resuspended in fresh medium and diluted to a starting OD500 of 0.5 in succinate minimal medium. PodA30-162 (2 μg mL^−1, final concentration) or DNase (20 μg mL^−1) (22) was added and 250 μL was added to each well of the 8-well chambered coverglass. Cultures were grown for 5 hours at 37° C. and 100 rpm (Innova 44 shaking incubator, New Brunswick) in a humidified chamber. After incubation, liquid was removed from each well by drawing with a pipet tip placed in the corner of each well and chambers were washed twice with 400 μL of biofilm wash (Tris buffer, pH 7.6 and 100 mM NaCl) to remove planktonic and loosely bound cells. Attached biomass was stained by adding 450 μL biofilm wash containing 10 μg mL^−1 DAPI (4′,6-diamidino-2-phenylindole) (Santa Cruz Biotechnology). Surface associated biomass was imaged on a Leica TCS SPE confocal microscope with a ACS APO 40×/1.15 oil immersion objective. A 405 nm solid-state laser was used for excitation, and data was collected from 420-500 nm. […]
# [3] = system: P. aeruginosa biofilm; assay: Microcolony number and size in 5 hour biofilms on succinate minimal medium; type: cell-based; conditions: 100 μM 1-OHPHZ or 0.5 μg mL-1 PodA
# Excerpt: FIGS. 24A-C show charts and images illustrating results of exemplary experiments showing that PodA and 1-OH-PHZ inhibit the early stages of P. aeruginosa biofilm formation on succinate minimal medium. […] Numbers are averages and SD from 8 biological replicates.
molecule,measurement,setting,value
"PodA30-162: truncated pyocyanin demethylase encoded by MFORT_14352 of Mycobacterium fortuitum lacking N-terminal helix, SEQ ID NO: 2 (protein, listed as Mycobacterium fortuitum) MDGRGGRSTTEPVTMTLDVKNDQVAKHDFGKPGMDVGDMDIFSDILSVDGKQVGYDGGACFFTNVTPDNPMTYCELTIHLDAGEIFARSLTPHTLAPFTMAITGGTGEYANSKGELTVSGVATPDEKYELKLTKAENLYFQ",time stable with no apparent loss of activity,[1],≥ 4 months
same,biofilm surface coverage,"[2]; PodA30-162 2 μg mL^−1, DNase 20 μg mL^−1, vs. PodA-inactive",reduced; also recorded: lower
same,biofilm surface coverage,"[2]; representative images, 82.7 percent in the absence of PodA30-162",43.5%
same,phenazines in biofilm supernatants by HPLC,[2]; after 5 hours of growth,conversion of PYO to 1-OH-PHZ
same,microcolony diameter,[3],decreases
same,number of microcolonies formed,[3]; vs inactive E154A,decreases

# From patent publication US12241094B2, “Phenazine degrading agents and related compositions, methods and systems for interfering with viability of bacteria” (priority 2016, dated 2025)
